Data from patent US12709637B2, “Regulated synthetic gene activation systems” (TRUSTEES OF BOSTON UNIVERSITY, priority 2023, dated 2026).

B1: NFZ: transcriptional activator, SEQ ID NO: 57, domains from NCOA3, FOXO3 and ZNF473; tested with TIMs on N terminus (protein, listed as Homo sapiens)
chain: EGQSDERALLDQLHTLLSNTDATGLEEIDRALGIPELVNQGQALEPKQGGGGSGHEKFPSDLDLDMFNGSLECDMESIIRSELMDADGLDFNFDSGGGGSGFVTLKDVGMDFTLGDWEQLGLEQGDTFWDTALDNCQDLFLLDPP
B2: 3Z: transcriptional activator, SEQ ID NO: 303; tested with TIMs on N terminus (protein)
chain: MAEEFVTLKDVGMDFTLGDWEQLGLEQGDTFWDTALDNCQDLFLLDPPRPNLTSHPDGSEDLEPLAGGSPEATSMAEEFVTLKDVGMDFTLGDWEQLGLEQGDTFWDTALDNCQDLFLLDPPRPNLTSHPDGSEDLEPLAGGSPEATSMAEEFVTLKDVGMDFTLGDWEQLGLEQGDTFWDTALDNCQDLFLLDPPRPNLTSHPDGSEDLEPLAGGSPEATS

What was measured:
[1] = system: mCherry reporter in Primary T cells; assay: GZV inducible systems driving mCherry reporter in Primary T cells; format: cell-based
Method: Primary T cells were co-transduced with synZiFTR 2.0 and a minimally expressed mCherry reporter. Upon addition of GZV, the synZiFTR construct activated mCherry expression, which was measured on a flow cytometer (see e.g., FIG. 10).

[2] = system: mCherry reporter in Primary T cells; assay: 4OHT inducible systems driving mCherry reporter in Primary T cells; format: cell-based
From the text: Primary T cells were co-transduced with synZiFTR 2.0 and a minimally expressed mCherry reporter.

Molecule	activation potency of the transcriptional activator on fusing TIMs domains on the N terminus [1]	activation potency of the transcriptional activator on fusing TIMs domains on the N terminus [2]
B1	enhanced activation potency	enhanced activation potency
B2		enhanced activation potency
